From patent publication US20150166606A1 (RA PHARMACEUTICALS, published 2015)
Numbered stars: 1 amine (or outer) side, 2 acyl side, 3 side chain; on linkers, the order of the positions; unused ones are H or OH. Bridge positions count the residues as written; N and C are the ends. Square brackets hold non-standard residues; d marks the D form. Ends that are not written are not given here. ABP = 2-amino-3-(5-bromothiophen-2-yl)propanoic acid, O=C([C@H](Cc1ccc(Br)s1)N[*:1])[*:2]; mXylyl = xylyl linker from dibromoxylene joining the two cysteines; des‑NH2 = missing amino-terminal amine group; Igl = N[C@H](C(=O)O)C1Cc2ccccc2C1; NMeR = CN[C@@H](CCCNC(=N)N)C(=O)O; dPhg = N[C@@H](C(=O)O)c1ccccc1; Phg = N[C@H](C(=O)O)c1ccccc1; Tle = CC(C)(C)[C@H](N)C(=O)O; Nva = CCC[C@H](N)C(=O)O

B1: R2217 (peptide)
peptide: {des‑NH2}-CP[dPhg]CR[Tle]L[NMeR]YSE-NH2
modifications: linker 1-4 via mXylyl
B2: R2220 (peptide)
peptide: {des‑NH2}-CP[dPhg]C[ABP][Tle]-NH2
modifications: bridge 1-4; not fully specified (residue 1, bridges); printed as [mXylyl(1,4)](des-NH2)C-P-(D-Phg)-C-ABP-Tbg-NH2
B3: R2218 (peptide)
peptide: {des‑NH2}-CP[Igl]CR[Tle]-NH2
modifications: bridge 1-4; not fully specified (residue 1, bridges); printed as [mXylyl(1,4)](des-NH2)C-P-Ind-CR-Tbg-NH2
B4: R2221 (peptide)
peptide: {des‑NH2}-CP[Phg]C-{4‑(aminomethyl)benzimidamide}
modifications: linker 1-4 via mXylyl
B5: R2219 (peptide)
peptide: {des‑NH2}-CP[Phg]C[ABP][Tle]-NH2
modifications: bridge 1-4; not fully specified (residue 1, bridges); printed as [mXylyl(1,4)(des-NH2)C-P-Phg-C-ABP-Tbg-NH2
B6: R2119 (peptide)
peptide: Ac-WSPWTECSA-NH2
B7: R2135 (peptide)
peptide: Ac-CNYWSPWT-NH2
B8: R2111 (peptide)
peptide: MCNYWSPWTEC-NH2
modifications: cysteine pairing not given here
B9: R2136 (peptide)
peptide: Ac-CNYWSPWTAC-NH2
modifications: linker 1-10 via mXylyl
B10: R2122 (peptide)
peptide: MCNYWSPWTSEI-NH2
B11: R2137 (peptide)
peptide: Ac-CNYWSAWTEC-NH2
modifications: cysteine pairing not given here
B12: R2123 (peptide)
peptide: MCNYWSPWTSE-NH2
B13: R2127 (peptide)
peptide: Ac-CNYWSPWTEA-NH2
B14: R2116 (peptide)
peptide: Ac-CNYWSPWTECSA-NH2
modifications: cysteine pairing not given here
B15: R2145 (peptide)
peptide: Ac-ANYWSPWTAA-NH2
B16: R2141 (peptide)
peptide: Ac-[Nva]NYWSPWTA[Nva]-NH2
SMILES: CCC[C@H](NC(=O)[C@H](C)NC(=O)[C@@H](NC(=O)[C@H](Cc1c[nH]c2ccccc12)NC(=O)[C@@H]1CCCN1C(=O)[C@H](CO)NC(=O)[C@H](Cc1c[nH]c2ccccc12)NC(=O)[C@H](Cc1ccc(O)cc1)NC(=O)[C@H](CC(N)=O)NC(=O)[C@H](CCC)NC(C)=O)[C@@H](C)O)C(N)=O
B17: R2133 (peptide)
peptide: Ac-CNAWSPWTEC-NH2
modifications: cysteine pairing not given here
B18: R2113 (peptide)
peptide: MCNYWSPWT-NH2
B19: R2112 (peptide)
peptide: MCNYWSPWTE-NH2
B20: R2129 (peptide)
peptide: Ac-CNYWSPWAEC-NH2
modifications: cysteine pairing not given here
B21: R2134 (peptide)
peptide: Ac-CNYWSPWTC-NH2
modifications: cysteine pairing not given here
B22: R2146 (peptide)
peptide: Ac-CNYWSPWAAC-NH2
modifications: cysteine pairing not given here
B23: R2114 (peptide)
peptide: MCNYWSPW-NH2
B24: R2142 (peptide)
peptide: Ac-CNYWSPWTAC-NH2
modifications: disulfide 1-10
SMILES: CC(=O)N[C@H]1CSSC[C@@H](C(N)=O)NC(=O)[C@H](C)NC(=O)[C@H]([C@@H](C)O)NC(=O)[C@H](Cc2c[nH]c3ccccc23)NC(=O)[C@@H]2CCCN2C(=O)[C@H](CO)NC(=O)[C@H](Cc2c[nH]c3ccccc23)NC(=O)[C@H](Cc2ccc(O)cc2)NC(=O)[C@H](CC(N)=O)NC1=O
B25: R2109 (peptide)
peptide: MCNYWSPWTSEIC-NH2
modifications: linker 2-13 via mXylyl
B26: R2140 (peptide)
peptide: Ac-CNYWSPWTA[Nva]-NH2
SMILES: CCC[C@H](NC(=O)[C@H](C)NC(=O)[C@@H](NC(=O)[C@H](Cc1c[nH]c2ccccc12)NC(=O)[C@@H]1CCCN1C(=O)[C@H](CO)NC(=O)[C@H](Cc1c[nH]c2ccccc12)NC(=O)[C@H](Cc1ccc(O)cc1)NC(=O)[C@H](CC(N)=O)NC(=O)[C@H](CS)NC(C)=O)[C@@H](C)O)C(N)=O
B27: R2130 (peptide)
peptide: Ac-CNYWSPATEC-NH2
modifications: cysteine pairing not given here
B28: R2128 (peptide)
peptide: Ac-CNYWSPWTAC-NH2
modifications: cysteine pairing not given here
B29: R2143 (peptide)
peptide: Ac-ANYWSPWTAC-NH2
B30: R2110 (peptide)
peptide: MCNYWSPWTECS-NH2
modifications: cysteine pairing not given here
B31: R2120 (peptide)
peptide: Ac-SPWTECSA-NH2
B32: R2131 (peptide)
peptide: Ac-CNYWAPWTEC-NH2
modifications: cysteine pairing not given here
B33: R2108 (peptide)
peptide: MCNYWSPWTECSA-NH2
modifications: linker 2-11 via mXylyl
B34: R2117 (peptide)
peptide: Ac-NYWSPWTECSA-NH2
B35: R2139 (peptide)
peptide: Ac-[Nva]NYWSPWTAC-NH2
SMILES: CCC[C@H](NC(C)=O)C(=O)N[C@@H](CC(N)=O)C(=O)N[C@@H](Cc1ccc(O)cc1)C(=O)N[C@@H](Cc1c[nH]c2ccccc12)C(=O)N[C@@H](CO)C(=O)N1CCC[C@H]1C(=O)N[C@@H](Cc1c[nH]c2ccccc12)C(=O)N[C@H](C(=O)N[C@@H](C)C(=O)N[C@@H](CS)C(N)=O)[C@@H](C)O
B36: R2125 (peptide)
peptide: Ac-CNYWSPWTECSA-NH2
modifications: linker 1-10 via mXylyl
B37: R2105 (peptide)
peptide: MCNYWSPWTSEIC-NH2
modifications: cysteine pairing not given here
B38: R2118 (peptide)
peptide: Ac-YWSPWTECSA-NH2
B39: R2138 (peptide)
peptide: Ac-ANYWSPWTEC-NH2
B40: R2107 (peptide)
peptide: MSNYWSPWTESSA-NH2
B41: R2115 (peptide)
peptide: MCNYWSP-NH2
B42: R2132 (peptide)
peptide: Ac-CNYASPWTEC-NH2
modifications: cysteine pairing not given here
B43: R2126 (peptide)
peptide: Ac-CNYWSPWTEC-NH2
modifications: cysteine pairing not given here
B44: R2124 (peptide)
peptide: MCNYWSPWTS-NH2
B45: R2144 (peptide)
peptide: Ac-CNYWSPWTAA-NH2
B46: R2106 (peptide)
peptide: Ac-NYWSPWT-NH2
B47: R2121 (peptide)
peptide: Ac-PWTECSA-NH2

molecular target: T1, Activated human plasma kallikrein (Enzyme Research Laboratories, HPKa 1303) (human, UniProt P03952 20-638); assay: cell-based or functional assay
T1 sequence (P03952 20-638 limits assumed): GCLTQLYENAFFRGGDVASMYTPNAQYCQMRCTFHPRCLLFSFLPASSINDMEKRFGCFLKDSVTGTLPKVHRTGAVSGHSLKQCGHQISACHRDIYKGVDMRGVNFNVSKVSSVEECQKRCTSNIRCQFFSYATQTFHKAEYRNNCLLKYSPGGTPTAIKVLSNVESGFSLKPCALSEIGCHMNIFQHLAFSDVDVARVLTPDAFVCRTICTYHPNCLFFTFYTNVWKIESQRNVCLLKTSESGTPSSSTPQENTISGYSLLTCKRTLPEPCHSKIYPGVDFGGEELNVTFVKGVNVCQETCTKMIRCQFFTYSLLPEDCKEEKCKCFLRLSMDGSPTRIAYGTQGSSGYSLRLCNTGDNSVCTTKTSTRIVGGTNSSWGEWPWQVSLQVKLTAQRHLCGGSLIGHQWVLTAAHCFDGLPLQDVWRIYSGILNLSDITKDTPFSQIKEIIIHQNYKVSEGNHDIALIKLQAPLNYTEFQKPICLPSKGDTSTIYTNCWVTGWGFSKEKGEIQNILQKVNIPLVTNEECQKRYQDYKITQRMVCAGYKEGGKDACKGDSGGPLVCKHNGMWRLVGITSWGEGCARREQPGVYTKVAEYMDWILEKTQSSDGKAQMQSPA

| Binder | Avg. IC50 [nM] |
| --- | --- |
| B1 | 114 |
| B2 | > 100000 |
| B3 | 3 |
| B4 | 401 |
| B5 | > 100000 |

molecular target: T1, Activated human plasma kallikrein …; assay: cell-based or functional assay; remark: another data set of the same source

| Binder | Avg. IC50 [nM] |
| --- | --- |
| B6 | > 100000 |
| B7 | 144 |
| B8 | 3.8 |
| B9 | 6.1 |
| B10 | 30.4 |
| B11 | 57.2 |
| B12 | 25.5 |
| B13 | 35.6 |
| B14 | 3.5 |
| B15 | 58.8 |
| B16 | 157 |
| B17 | 39.1 |
| B18 | 88.8 |
| B19 | 2.4 |
| B20 | 12.3 |
| B21 | 86.7 |
| B22 | 17.5 |
| B23 | 349 |
| B24 | 2.7 |
| B25 | 9.2 |
| B26 | 105 |

| Binder | Avg. IC50 [nM] |
| --- | --- |
| B27 | 5300 |
| B28 | 2.5 |
| B29 | 48.4 |
| B30 | 3.5 |
| B31 | > 100000 |
| B32 | 127 |
| B33 | 4.1 |
| B34 | 43.9 |
| B35 | 65.3 |
| B36 | 10.6 |
| B37 | 4.4 |
| B38 | > 100000 |
| B39 | 22.3 |
| B40 | 128 |
| B41 | > 17300 |
| B42 | 4110 |
| B43 | 1.4 |
| B44 | 54.6 |
| B45 | 95.5 |
| B46 | 374 |
| B47 | 10300 |
